According to the supplement of paper PMC10567573:

B1: SCNN1D (parent)
chain: FYRLYQDLETHRLPCTSRCPRPCR

Variants of: B1
Assay: protein stability index of a GFP-peptide fusion (GPS, HEK-293T) (PSI 1-6); higher = more stable
Conditions: c terminus: a fixed tail appended
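Also: lentivirally expressed fusions sorted by FACS into six bins by GFP to DsRed ratio, PSI derived from sequencing read proportions per bin multiplied by bin number.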

**Q.** Which protein stability index does the source give for FYRLYQDLETHILPCTSRCPRPCR [R12I] here?
**A.** 1.42

**Q.** Which protein stability index does the source give for FYRLYQDLETHDLPCTSRCPRPCR [R12D] here?
**A.** 2.4

**Q.** With FYRLYQDLETHKLPCTSRCPRPCR [R12K] as the variant, how does the protein stability index read?
**A.** 2.37

**Q.** With FYRLYQDLETHQLPCTSRCPRPCR [R12Q] as the variant, how does the protein stability index read?
**A.** 2.47

**Q.** For FYRLYQDLETHHLPCTSRCPRPCR [R12H], which protein stability index is on record?
**A.** 3.03

**Q.** With FYRLYQDLETHVLPCTSRCPRPCR [R12V] as the variant, how does the protein stability index read?
**A.** 1.93

**Q.** For FYRLYQDLETHTLPCTSRCPRPCR [R12T], which protein stability index is on record?
**A.** 2.1

**Q.** Which protein stability index does the source give for FYRLYQDLETHELPCTSRCPRPCR [R12E] here?
**A.** 2.5

**Q.** Which protein stability index does the source give for FYRLYQDLETHPLPCTSRCPRPCR [R12P] here?
**A.** 2.64

**Q.** For FYRLYQDLETHALPCTSRCPRPCR [R12A], which protein stability index is on record?
**A.** 3.03

**Q.** With FYRLYQDLETHFLPCTSRCPRPCR [R12F] as the variant, how does the protein stability index read?
**A.** 2.41

**Q.** Which protein stability index does the source give for FYRLYQDLETHNLPCTSRCPRPCR [R12N] here?
**A.** 2.22

**Q.** For FYRLYQDLETHLLPCTSRCPRPCR [R12L], which protein stability index is on record?
**A.** 2.05

**Q.** For FYRLYQDLETHCLPCTSRCPRPCR [R12C], which protein stability index is on record?
**A.** 2.3

**Q.** For FYRLYQDLETHMLPCTSRCPRPCR [R12M], which protein stability index is on record?
**A.** 2.33

**Q.** For FYRLYQDLETHGLPCTSRCPRPCR [R12G], which protein stability index is on record?
**A.** 2.47

**Q.** For FYRLYQDLETHSLPCTSRCPRPCR [R12S], which protein stability index is on record?
**A.** 3.51

**Q.** Which protein stability index does the source give for FYGLYQDLETHRLPCTSRCPRPCR [R3G] here?
**A.** 2.65

**Q.** For FYILYQDLETHRLPCTSRCPRPCR [R3I], which protein stability index is on record?
**A.** 1.95

**Q.** Which protein stability index does the source give for FYDLYQDLETHRLPCTSRCPRPCR [R3D] here?
**A.** 2.71

**Q.** With FYELYQDLETHRLPCTSRCPRPCR [R3E] as the variant, how does the protein stability index read?
**A.** 2.63

**Q.** For FYQLYQDLETHRLPCTSRCPRPCR [R3Q], which protein stability index is on record?
**A.** 2.71

**Q.** Which protein stability index does the source give for FYSLYQDLETHRLPCTSRCPRPCR [R3S] here?
**A.** 2.42

**Q.** Which protein stability index does the source give for FYKLYQDLETHRLPCTSRCPRPCR [R3K] here?
**A.** 2.58

**Q.** With FYYLYQDLETHRLPCTSRCPRPCR [R3Y] as the variant, how does the protein stability index read?
**A.** 1.66

**Q.** With FYCLYQDLETHRLPCTSRCPRPCR [R3C] as the variant, how does the protein stability index read?
**A.** 1.98

**Q.** With FYHLYQDLETHRLPCTSRCPRPCR [R3H] as the variant, how does the protein stability index read?
**A.** 2.38

**Q.** For FYALYQDLETHRLPCTSRCPRPCR [R3A], which protein stability index is on record?
**A.** 2.32

**Q.** Which protein stability index does the source give for FYFLYQDLETHRLPCTSRCPRPCR [R3F] here?
**A.** 2.32

**Q.** Which protein stability index does the source give for FYLLYQDLETHRLPCTSRCPRPCR [R3L] here?
**A.** 2

**Q.** With FYMLYQDLETHRLPCTSRCPRPCR [R3M] as the variant, how does the protein stability index read?
**A.** 2.09

**Q.** For FYVLYQDLETHRLPCTSRCPRPCR [R3V], which protein stability index is on record?
**A.** 2.04

**Q.** For FYTLYQDLETHRLPCTSRCPRPCR [R3T], which protein stability index is on record?
**A.** 2.65

**Q.** For FYNLYQDLETHRLPCTSRCPRPCR [R3N], which protein stability index is on record?
**A.** 2.22

**Q.** Which protein stability index does the source give for FYPLYQDLETHRLPCTSRCPRPCR [R3P] here?
**A.** 3.04

**Q.** Which protein stability index does the source give for FYRGYQDLETHRLPCTSRCPRPCR [L4G] here?
**A.** 3.51

**Q.** Which protein stability index does the source give for FYREYQDLETHRLPCTSRCPRPCR [L4E] here?
**A.** 4.13

**Q.** With FYRPYQDLETHRLPCTSRCPRPCR [L4P] as the variant, how does the protein stability index read?
**A.** 3.47

**Q.** Which protein stability index does the source give for FYRRYQDLETHRLPCTSRCPRPCR [L4R] here?
**A.** 2.49

**Q.** Which protein stability index does the source give for FYRWYQDLETHRLPCTSRCPRPCR [L4W] here?
**A.** 2.59

**Q.** Which protein stability index does the source give for FYRNYQDLETHRLPCTSRCPRPCR [L4N] here?
**A.** 3.29

**Q.** With FYRCYQDLETHRLPCTSRCPRPCR [L4C] as the variant, how does the protein stability index read?
**A.** 1.56

**Q.** Which protein stability index does the source give for FYRAYQDLETHRLPCTSRCPRPCR [L4A] here?
**A.** 3.02

**Q.** With FYRSYQDLETHRLPCTSRCPRPCR [L4S] as the variant, how does the protein stability index read?
**A.** 3.46

**Q.** With FYRFYQDLETHRLPCTSRCPRPCR [L4F] as the variant, how does the protein stability index read?
**A.** 2.04

**Q.** With FYRKYQDLETHRLPCTSRCPRPCR [L4K] as the variant, how does the protein stability index read?
**A.** 3.68

**Q.** With FYRHYQDLETHRLPCTSRCPRPCR [L4H] as the variant, how does the protein stability index read?
**A.** 3.23

**Q.** Which protein stability index does the source give for FYRQYQDLETHRLPCTSRCPRPCR [L4Q] here?
**A.** 3.24

**Q.** For FYRYYQDLETHRLPCTSRCPRPCR [L4Y], which protein stability index is on record?
**A.** 2.14

**Q.** For FYRIYQDLETHRLPCTSRCPRPCR [L4I], which protein stability index is on record?
**A.** 2.41

**Q.** For FYRDYQDLETHRLPCTSRCPRPCR [L4D], which protein stability index is on record?
**A.** 2.69

**Q.** Which protein stability index does the source give for FYRTYQDLETHRLPCTSRCPRPCR [L4T] here?
**A.** 2.79

**Q.** With FYRMYQDLETHRLPCTSRCPRPCR [L4M] as the variant, how does the protein stability index read?
**A.** 2.34

**Q.** For FVRLYQDLETHRLPCTSRCPRPCR [Y2V], which protein stability index is on record?
**A.** 2.97

**Q.** For FTRLYQDLETHRLPCTSRCPRPCR [Y2T], which protein stability index is on record?
**A.** 1.81

**Q.** Which protein stability index does the source give for FWRLYQDLETHRLPCTSRCPRPCR [Y2W] here?
**A.** 2.75

**Q.** For FYRLRQDLETHRLPCTSRCPRPCR [Y5R], which protein stability index is on record?
**A.** 2.02

**Q.** Which protein stability index does the source give for FYRLTQDLETHRLPCTSRCPRPCR [Y5T] here?
**A.** 2.8

**Q.** Which protein stability index does the source give for FYRLPQDLETHRLPCTSRCPRPCR [Y5P] here?
**A.** 3.49

**Q.** Which protein stability index does the source give for FYRLWQDLETHRLPCTSRCPRPCR [Y5W] here?
**A.** 2.08

**Q.** For FYRLVQDLETHRLPCTSRCPRPCR [Y5V], which protein stability index is on record?
**A.** 1.88

**Q.** For FYRLEQDLETHRLPCTSRCPRPCR [Y5E], which protein stability index is on record?
**A.** 3.17

**Q.** With FYRLCQDLETHRLPCTSRCPRPCR [Y5C] as the variant, how does the protein stability index read?
**A.** 2.13

**Q.** Which protein stability index does the source give for FYRLNQDLETHRLPCTSRCPRPCR [Y5N] here?
**A.** 3.29

**Q.** With FYRLAQDLETHRLPCTSRCPRPCR [Y5A] as the variant, how does the protein stability index read?
**A.** 4.45

**Q.** Which protein stability index does the source give for FYRLQQDLETHRLPCTSRCPRPCR [Y5Q] here?
**A.** 2.81

**Q.** Which protein stability index does the source give for FYRLKQDLETHRLPCTSRCPRPCR [Y5K] here?
**A.** 2.6

**Q.** With FYRLLQDLETHRLPCTSRCPRPCR [Y5L] as the variant, how does the protein stability index read?
**A.** 3.17

**Q.** With FYRLIQDLETHRLPCTSRCPRPCR [Y5I] as the variant, how does the protein stability index read?
**A.** 1.76

**Q.** For FYRLGQDLETHRLPCTSRCPRPCR [Y5G], which protein stability index is on record?
**A.** 3.16

**Q.** Which protein stability index does the source give for FYRLFQDLETHRLPCTSRCPRPCR [Y5F] here?
**A.** 1.98

**Q.** With FYRLDQDLETHRLPCTSRCPRPCR [Y5D] as the variant, how does the protein stability index read?
**A.** 3.64

**Q.** For FYRLHQDLETHRLPCTSRCPRPCR [Y5H], which protein stability index is on record?
**A.** 2.92

**Q.** Which protein stability index does the source give for FYRLMQDLETHRLPCTSRCPRPCR [Y5M] here?
**A.** 2.29

**Q.** Which protein stability index does the source give for FYRLSQDLETHRLPCTSRCPRPCR [Y5S] here?
**A.** 2.57

**Q.** With FYRLYQDLVTHRLPCTSRCPRPCR [E9V] as the variant, how does the protein stability index read?
**A.** 2.29

**Q.** Which protein stability index does the source give for FYRLYQDLHTHRLPCTSRCPRPCR [E9H] here?
**A.** 2.25

**Q.** Which protein stability index does the source give for FYRLYQDLPTHRLPCTSRCPRPCR [E9P] here?
**A.** 2.05

**Q.** For FYRLYQDLSTHRLPCTSRCPRPCR [E9S], which protein stability index is on record?
**A.** 1.94

**Q.** With FYRLYQDLDTHRLPCTSRCPRPCR [E9D] as the variant, how does the protein stability index read?
**A.** 2.99

**Q.** Which protein stability index does the source give for FYRLYQDLCTHRLPCTSRCPRPCR [E9C] here?
**A.** 1.66

**Q.** With FYRLYQDLQTHRLPCTSRCPRPCR [E9Q] as the variant, how does the protein stability index read?
**A.** 1.83

**Q.** For FYRLYQDLTTHRLPCTSRCPRPCR [E9T], which protein stability index is on record?
**A.** 1.65

**Q.** Which protein stability index does the source give for FYRLYQDLYTHRLPCTSRCPRPCR [E9Y] here?
**A.** 1.5

**Q.** For FYRLYQDLGTHRLPCTSRCPRPCR [E9G], which protein stability index is on record?
**A.** 1.57

**Q.** With FYRLYQDLWTHRLPCTSRCPRPCR [E9W] as the variant, how does the protein stability index read?
**A.** 1.08

**Q.** For FYRLYQDLKTHRLPCTSRCPRPCR [E9K], which protein stability index is on record?
**A.** 2.38

**Q.** With FYRLYQDLFTHRLPCTSRCPRPCR [E9F] as the variant, how does the protein stability index read?
**A.** 1.46

**Q.** For FYRLYQDLATHRLPCTSRCPRPCR [E9A], which protein stability index is on record?
**A.** 2.06

**Q.** With FYRLYQDLMTHRLPCTSRCPRPCR [E9M] as the variant, how does the protein stability index read?
**A.** 2.87

**Q.** With FYRLYQDLNTHRLPCTSRCPRPCR [E9N] as the variant, how does the protein stability index read?
**A.** 1.6

**Q.** With FYRLYQDLRTHRLPCTSRCPRPCR [E9R] as the variant, how does the protein stability index read?
**A.** 1.58

**Q.** For FYRLYQDLLTHRLPCTSRCPRPCR [E9L], which protein stability index is on record?
**A.** 2.8

**Q.** Which protein stability index does the source give for FYRLYQDLITHRLPCTSRCPRPCR [E9I] here?
**A.** 2.06
